Assay results: paper PMC1182371, “Zinc-finger domains of the transcriptional repressor KLF15 bind multiple sites in rhodopsin and IRBP promoters including the CRS-1 and G-rich repressor elements”

Biological target: KLF15-ZF-GST (human, UniProt Q9UIH9 294-416)
Experiment: competition; 50x, 250x vs bRho29 probe; also hRho29 probe (data not shown); EMSA: 4 mM HEPES, 5 mM EGTA, 100 mM KCl, 0.25 mM ZnCl2, 0.02% NP40, 0.1 M DTT, 4% glycerol, 90-120 min on ice, pH not stated; footprinting: same buffer, DNase I at room temperature 1 min
Settings: protein: recombinant; tags: N-terminal GST; label: unlabeled; GG ends end-filled

KLF15-ZF-GST, sequence (Q9UIH9 294-416): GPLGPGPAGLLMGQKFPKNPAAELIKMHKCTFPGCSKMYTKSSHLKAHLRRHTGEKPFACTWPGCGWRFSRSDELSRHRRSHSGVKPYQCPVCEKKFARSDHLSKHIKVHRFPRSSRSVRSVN

B1: IRBP2 (dsDNA)
DNA 1: GGACTTGTCAGGGCCTTTA
DNA 2: TAAAGGCCCTGACAAGTCC
binding result: no binding

B2: IRBP1 (dsDNA)
DNA 1: GGACAGGATTAAAGGCTTACTGGAG
DNA 2: CTCCAGTAAGCCTTTAATCCTGTCC
binding result: no binding
